Reference: paper PMC10397247
Read-outs that look alike come from different tables or passages of the source. Blank lines part the entries; values can stand above or below the binder they belong to.

Columns and labels:
Test in all cases: two-hybrid library CCmax;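 further: natural log of median RNA to DNA barcode read ratio; higher means stronger binding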
[1] = target: T1, 4H2253-AA; details: mean of both orientations
T1 chain: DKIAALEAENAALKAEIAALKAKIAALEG

[2] = target: T2, 4H2274-AA; details: mean of both orientations
T2 chain: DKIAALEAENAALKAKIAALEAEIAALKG

[3] = target: T3, 4H2330-AA; details: mean of both orientations
T3 chain: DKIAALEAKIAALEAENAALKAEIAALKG

[4] = target: T4, 4H2389-AA; details: mean of both orientations
T4 chain: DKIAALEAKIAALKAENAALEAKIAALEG

[5] = target: T5, 4H2438-AA; details: mean of both orientations
T5 chain: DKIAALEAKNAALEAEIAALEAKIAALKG

[6] = target: T6, 4H2473-AA; details: mean of both orientations
T6 chain: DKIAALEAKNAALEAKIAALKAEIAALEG

[7] = target: T7, 4H2649-AA; details: mean of both orientations
T7 chain: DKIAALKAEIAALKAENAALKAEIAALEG

[8] = target: T8, 4H2698-AA
T8 chain: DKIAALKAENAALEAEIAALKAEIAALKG

[9] = target: T9, 4H2725-AA; details: mean of both orientations
T9 chain: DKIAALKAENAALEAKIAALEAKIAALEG

[10] = target: T10, 4H2865-AA
T10 chain: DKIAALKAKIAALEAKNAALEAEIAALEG

[11] = target: T11, 4H310-AA; details: mean of both orientations
T11 chain: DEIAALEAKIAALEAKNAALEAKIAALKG

[12] = target: T12, 4H3120-AA; details: mean of both orientations
T12 chain: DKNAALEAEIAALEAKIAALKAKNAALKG

[13] = target: T13, 4H3130-AA; details: mean of both orientations
T13 chain: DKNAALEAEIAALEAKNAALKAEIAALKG

[14] = target: T14, 4H3165-AA
T14 chain: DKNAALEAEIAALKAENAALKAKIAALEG

[15] = target: T15, 4H3381-AA; details: mean of both orientations
T15 chain: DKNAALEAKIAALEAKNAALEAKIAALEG

[16] = target: T16, 4H3395-AA; details: mean of both orientations
T16 chain: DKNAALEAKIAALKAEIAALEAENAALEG

[17] = target: T17, 4H3697-AA; details: mean of both orientations
T17 chain: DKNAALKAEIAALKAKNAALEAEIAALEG

[18] = target: T18, 4H3753-AA; details: mean of both orientations
T18 chain: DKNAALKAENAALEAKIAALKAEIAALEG

[19] = target: T19, 4H384-AA; details: mean of both orientations
T19 chain: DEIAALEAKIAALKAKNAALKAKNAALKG

[20] = target: T20, 4H3865-AA; details: mean of both orientations
T20 chain: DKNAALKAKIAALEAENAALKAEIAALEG

[21] = target: T21, 4H458-AA; details: mean of both orientations
T21 chain: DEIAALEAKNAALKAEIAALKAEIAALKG

[22] = target: T22, 4H485-AA; details: mean of both orientations
T22 chain: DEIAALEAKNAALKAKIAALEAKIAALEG

[23] = target: T23, 4H570-AA
T23 chain: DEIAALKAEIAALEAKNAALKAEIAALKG

[24] = target: T24, 4H629-AA; details: mean of both orientations
T24 chain: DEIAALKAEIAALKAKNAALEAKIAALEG

[25] = target: T25, 4H745-AA; details: mean of both orientations
T25 chain: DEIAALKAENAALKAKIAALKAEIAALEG

[26] = target: T26, 4H797-AA; details: mean of both orientations
T26 chain: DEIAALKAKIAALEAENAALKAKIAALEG

[27] = target: T27, 4H850-AA; details: mean of both orientations
T27 chain: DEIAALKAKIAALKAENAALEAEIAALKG

[28] = target: T28, 4H891-AA; details: mean of both orientations
T28 chain: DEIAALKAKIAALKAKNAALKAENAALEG

[29] = target: T29, 4H909-AA; details: mean of both orientations
T29 chain: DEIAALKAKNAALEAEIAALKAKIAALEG

[30] = target: T30, 4H94-AA; details: mean of both orientations
T30 chain: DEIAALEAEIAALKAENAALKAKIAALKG

[31] = target: T31, 4H249-AA
T31 chain: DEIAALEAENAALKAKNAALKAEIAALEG

[32] = target: T32, 4H2774-AA; details: mean of both orientations
T32 chain: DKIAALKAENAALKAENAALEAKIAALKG

[33] = target: T33, 4H2611-AA
T33 chain: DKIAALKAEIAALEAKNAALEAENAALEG

[34] = target: T34, 4H_APH
T34 chain: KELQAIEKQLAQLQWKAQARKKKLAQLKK

[35] = target: T35, 4H_BCR; details: mean of both orientations
T35 chain: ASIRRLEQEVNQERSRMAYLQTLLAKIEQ

[36] = target: 4H_GCN4
4H_GCN4, sequence (chain, as listed by the source): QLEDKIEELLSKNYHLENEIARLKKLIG

[37] = target: GCN2_T
[38] = target: T36, 4H717-AA; details: mean of both orientations
T36 chain: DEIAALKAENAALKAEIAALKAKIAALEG

[39] = target: T37, 4H3606-AA
T37 chain: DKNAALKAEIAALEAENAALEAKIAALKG

[40] = target: T38, 4H3631-AA; details: mean of both orientations
T38 chain: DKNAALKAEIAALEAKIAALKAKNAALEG

[41] = target: T39, 4H3718-AA
T39 chain: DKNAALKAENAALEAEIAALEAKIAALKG

[42] = target: T40, 4H697-AA; details: mean of both orientations
T40 chain: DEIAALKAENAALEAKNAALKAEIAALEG

[43] = target: T41, 4H982-AA; details: mean of both orientations
T41 chain: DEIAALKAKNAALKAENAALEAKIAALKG

interaction score [39]: -0.0341 | interaction score [40]: -0.831 | interaction score [17]: 1.42 | interaction score [41]: -1.15 | interaction score [19]: 1.18 | interaction score [20]: 1.86 | interaction score [23]: -2.43 | interaction score [42]: -0.116 | interaction score [38]: -1.65 | interaction score [43]: 0.00779 | interaction score ([34]; mean of both orientations): -1.27 | interaction score [35]: -0.919 | interaction score [36]: -0.288 | interaction score [37]: -0.266
B5: 4H3606-AA (peptide)
chain: DKNAALKAEIAALEAENAALEAKIAALKG

interaction score [1]: -1.02 | interaction score [3]: -1.33 | interaction score ([31]; mean of both orientations): -1.16 | interaction score [32]: -0.839 | interaction score ([39]; mean of both orientations): -0.638 | interaction score [38]: -1.25 | interaction score [34]: -1.76 | interaction score [35]: -0.379 | interaction score [36]: -1.58 | interaction score [37]: -1.41
B7: 4H2165-AA (peptide)
chain: DKIAALEAEIAALKAKNAALEAKIAALEG

interaction score ([33]; mean of both orientations): -1.66 | interaction score ([39]; mean of both orientations): 2.07 | interaction score [40]: -1.4 | interaction score [17]: -0.792 | interaction score ([41]; mean of both orientations): 0.196 | interaction score [19]: -1.67 | interaction score [20]: 0.227 | interaction score [42]: -1.39 | interaction score [38]: -1.5 | interaction score [43]: -0.483 | interaction score ([34]; mean of both orientations): -1.86 | interaction score [35]: -1.64 | interaction score [36]: -1.67 | interaction score [37]: -1.62
B9: 4H1401-AA (peptide)
chain: DENAALEAKIAALKAKNAALKAEIAALEG

interaction score ([33]; mean of both orientations): -1.56 | interaction score ([39]; mean of both orientations): -0.353 | interaction score [40]: -1.57 | interaction score [17]: -1.83 | interaction score ([41]; mean of both orientations): -1.65 | interaction score [19]: -1.55 | interaction score [20]: -1.31 | interaction score [42]: -1.65 | interaction score [38]: -1.01 | interaction score [26]: -0.965 | interaction score [43]: -1.6
B10: 4H1845-AA (peptide)
chain: DENAALKAKIAALEAKNAALEAKIAALEG

Second part, the binder before the results:

B1: 4H171-AA (peptide)
chain: DEIAALEAENAALEAKIAALKAENAALEG
interaction score [1]: -1.44 | interaction score [2]: -1.17 | interaction score [3]: -2.02 | interaction score [4]: -1.07 | interaction score [5]: 0.734 | interaction score [6]: -1.21 | interaction score [7]: -0.999 | interaction score [8]: -0.616 | interaction score [9]: -1.12 | interaction score [10]: -0.997 | interaction score [11]: -1.66 | interaction score [12]: -1.42 | interaction score [13]: 0.164 | interaction score ([14]; mean of both orientations): -1.21 | interaction score [15]: -1.57 | interaction score [16]: -1.24 | interaction score [17]: -0.767 | interaction score [18]: -1.25 | interaction score [19]: -1.36 | interaction score [20]: -0.476 | interaction score [21]: -0.711 | interaction score [22]: -0.423 | interaction score ([23]; mean of both orientations): -0.493 | interaction score [24]: -1.29 | interaction score [25]: -1.45 | interaction score [26]: -1.36 | interaction score [27]: -1.11 | interaction score [28]: -0.295 | interaction score [29]: -1.12 | interaction score [30]: -1.72

B2: 4H1064-AA (peptide)
chain: DENAALEAEIAALEAKIAALEAKNAALKG
interaction score ([31]; mean of both orientations): -2.06 | interaction score [32]: -1.39

B3: 4H249-AA (peptide)
chain: DEIAALEAENAALKAKNAALKAEIAALEG
interaction score [31]: -0.781 | interaction score ([33]; mean of both orientations): -1.99 | interaction score [32]: 1.92 | interaction score [15]: -1.79 | interaction score ([34]; mean of both orientations): -1.97 | interaction score [35]: -1.72 | interaction score [36]: -1.66 | interaction score [37]: -1.96

B4: 4H1257-AA (peptide)
chain: DENAALEAENAALKAKIAALKAEIAALEG
interaction score ([31]; mean of both orientations): -1.46 | interaction score [32]: 2.09 | interaction score [38]: 0.282 | interaction score [26]: -1.57 | interaction score ([34]; mean of both orientations): -1.94 | interaction score [35]: -2.19 | interaction score [36]: -2.56 | interaction score [37]: -1.92

B6: 4H1385-AA (peptide)
chain: DENAALEAKIAALKAKIAALKAEIAALEG
interaction score [1]: -1.44 | interaction score [2]: -0.953 | interaction score [3]: -1.41 | interaction score [4]: -1.15 | interaction score [5]: 1.55 | interaction score [6]: -0.93 | interaction score [7]: -1.29 | interaction score ([8]; mean of both orientations): 0.136 | interaction score [9]: 0.284 | interaction score ([10]; mean of both orientations): -0.751 | interaction score [11]: -0.553 | interaction score [12]: 0.706 | interaction score [13]: -0.837 | interaction score [14]: -1.48 | interaction score [15]: -1.28 | interaction score [16]: 0.689 | interaction score [17]: -0.69 | interaction score [18]: -0.82 | interaction score [19]: -0.727 | interaction score [20]: -1.52 | interaction score [21]: -0.706 | interaction score [22]: -0.799 | interaction score ([23]; mean of both orientations): -0.556 | interaction score [24]: -1.12 | interaction score [25]: -1.3 | interaction score [26]: -1.08 | interaction score [27]: -0.784 | interaction score [28]: -1.56 | interaction score [29]: -1.36 | interaction score [30]: -0.994 | interaction score ([34]; mean of both orientations): -1.13 | interaction score [35]: -1.56 | interaction score [36]: -1.45 | interaction score ([37]; mean of both orientations): -1.2

B8: 4H1350-AA (peptide)
chain: DENAALEAKIAALKAEIAALEAKIAALKG
interaction score [33]: -1.74 | interaction score [19]: -0.758 | interaction score ([34]; mean of both orientations): -1.67 | interaction score [35]: -1.28 | interaction score [36]: -1.31 | interaction score [37]: -1.41

B11: 4H1153-AA (peptide)
chain: DENAALEAENAALEAEIAALEAEIAALEG
interaction score ([33]; mean of both orientations): -1.92 | interaction score [39]: -0.981 | interaction score [40]: 0.849 | interaction score [17]: -1.72 | interaction score ([41]; mean of both orientations): 0.217 | interaction score [19]: -0.314 | interaction score [20]: -1.67 | interaction score [42]: -1.68 | interaction score [38]: -1.1 | interaction score [43]: -0.675
